Measured values from paper PMC10680838.

Target: DcpA (Agrobacterium tumefaciens C58)
Assay: cross-linking

PruR (natural protein) gave a stoichiometry N of 1.
